Experimental data published in patent US20030134779A1, “Method and composition for treatment and/or prevention of antibiotic-resistant microorganism infections” (priority 2002, published 2003).

Legend:
Assay type in all cases: cell-based, Staphylococcus aureus
S. aureus strains = assay: MIC / FIC determination, summary over strains; settings: strains of Table 1
From the text: Staphylococcus aureus strains ATCC 25923 and 6538 and Escherichia coli ATCC 25922 were obtained from the American Type Culture Collection. Eight bovine mastitis clinical isolates of S. aureus (SHY97-3906, -3923, -4085 -4242, -4320 and -4343, RFT-1 and RFT-5) and one isolate of E. coli SHY97-3923-2 and one isolate of Kiebsiella pneumoniae SHY99-723-1 were kindly provided by the Laboratoire Provincial de Pathologie Animale of St-Hyacinthe and of Rock-Forest (Quebec, Canada), respectively. Nine β-lactam antibiotics resistant S. aureus strains (PC-1, NCTC 9789, 2076, 22260, ST79/741, 3804, RN9, FAR8, and FAR10) were obtained from Vanderbilt University School of Medicine (Nashville, Tenn., USA). […]
The MICs were determined by both macrodilution (1 ml/tube) and microdilution (100 μl/well) in sterile 96 well microtiter plates (International Nunc, Napierville, Ill.) techniques in three separate experiments according to the National Committee for Clinical Laboratory Standards (1992 and 1999) in three separate experiments. […] Effect of LF combination with antibiotic on MICs were determined by adding 0.5 mg or 1 mg/ml of LF to each antibiotic dilution. […] Effect of LF or LFC combination with antibiotic on MIC was also determined by checkerboard method using 96 well microtiter plates. […] The fractional inhibitory concentration (FIC) was calculated as described by Eliopoulos and Moellering (1991). […]

S. aureus ATCC 25923 = assay: Cell morphology by transmission electron microscopy; settings: LF 9.1 μg/ml alone; 18-h
Description: Bacterial cells were grown overnight on MHA or MHB containing sub-MICs of penicillin G with or without LF or LFC. Microorganisms were prepared for transmission electron microscopy by fixation with glutaraldehyde followed by ferritin labelling. This method allows good- preservation of capsular material. Briefly, bacterial cells grown in the presence or absence of antibiotics were fixed in cacodylate buffer (0.1 M, pH 7.0) containing 5% (v/v) glutaraldehyde, for 2 h at 20° C. Fixed microorganims were suspended in cacodylate buffer and allowed to react with the polycationic ferritin (Sigma Chemicals, St-Louis, Mo.; final concentration 1.0 mg/ml) for 30 min at 20° C. The reaction was slowed down by 10-fold dilution with buffer, and the microorganisms were centrifuged and washed three times in cacodylate buffer. Bacterial cells were then immobilized in 4% (w/v) agar, washed 5 times in cacodylate buffer and post-fixed with 2% (w/v) osmium tetroxide for 2 h. Washings were repeated as above, and the samples dehydrated in a graded series of acetone washes. Samples were then washed twice in propylene oxide and embedded in Spurr low-viscosity resin. Thin sections were post-stained with uranyl acetate and lead citrate and examined with an electron microscope (Philips 201) at an accelerating voltage of 60 kV.

S. aureus SHY97-4320 [1] = assay: WGA-gold labelling of cell wall and cell division, electron microscopy
Description: To investigate the mechanism of action of LF in combination with penicillin G on cell division, transmission electron microscopy was also performed on thin section of a β-lactamase producing S. aureus SHY97-4320. Bacterial cells were grown in MHB containing 8 μg/ml of penicillin G, 1 mg/ml LF alone or in combination for 4-h at 37° C. with agitation at 150 rpm. Bacteria were harvested and incubated or not for 2-h in 0.02 M Tris (pH 7.4) containing 0.15 M NaCl, 0.5 mg/ml and 50 μl of wheat germ agglutinin (WGA) gold (Sigma Chemicals, St-Louis, Mo.) for 2 h. Bacteria cell morphology was evaluated by transmission electron microscopy as previously described. Effects of treatments were evaluated and compared by “t” test. […] The WGA has an affinity for N-acetyl-β-D-glucosamyl residues and N-acetyl-β-D-glucosamine oligomer. After treatment with LF, S. aureus cells were less covered (P<0.005) with WGA-gold (FIG. 12 and Table 3).

S. aureus SHY97-4320 [2] = assay: SDS-PAGE protein profile of whole cells
Description: Staphylococcus aureus SHY97-4320 cells growth in MHB containing test compounds were suspended in electrophoresis sample buffer containing 2% sodium dodecyl sulfate (SDS) and 5% 2-mercaptoethanol to a final concentration of 0.1 g per ml. The samples were heated to 100° C. for 5 min before being loaded for electrophoresis on a discontinuous 0.1% SDS-polyacrylamide gel (SDS PAGE) with 6% polyacrylamide stacking gel and 10 or 12% polyacrylamide running gel. Gels were run on a Mini-Protean® II apparatus (Bio Rad laboratories, Richmond, Calif.). Protein profiles were visualised by staining with coomassie brilliant blue R-250 or by silver staining.

B1: LF: bovine lactoferrin, 80-kDa iron-binding glycoprotein found in milk (protein, UniProt P24627 20-708, looked up)
Lactotransferrin: APRKNVRWCTISQPEWFKCRRWQWRMKKLGAPSITCVRRAFALECIRAIAEKKADAVTLDGGMVFEAGRDPYKLRPVAAEIYGTKESPQTHYYAVAVVKKGSNFQLDQLQGRKSCHTGLGRSAGWIIPMGILRPYLSWTESLEPLQGAVAKFFSASCVPCIDRQAYPNLCQLCKGEGENQCACSSREPYFGYSGAFKCLQDGAGDVAFVKETTVFENLPEKADRDQYELLCLNNSRAPVDAFKECHLAQVPSHAVVARSVDGKEDLIWKLLSKAQEKFGKNKSRSFQLFGSPPGQRDLLFKDSALGFLRIPSKVDSALYLGSRYLTTLKNLRETAEEVKARYTRVVWCAVGPEEQKKCQQWSQQSGQNVTCATASTTDDCIVLVLKGEADALNLDGGYIYTAGKCGLVPVLAENRKSSKHSSLDCVLRPTEGYLAVAVVKKANEGLTWNSLKDKKSCHTAVDRTAGWNIPMGLIVNQTGSCAFDEFFSQSCAPGADPKSRLCALCAGDDQGLDKCVPNSKEKYYGYTGAFRCLAEDVGDVAFVKNDTVWENTNGESTADWAKNLNREDFRLLCLDGTRKPVTEAQSCHLAVAPNHAVVSRSDRAAHVKQVLLHQQALFGKNGKNCPDKFCLFKSETKNLLFNDNTECLAKLGGRPTYEEYLGTEYVTAIANLKKCSTSPLLEACAFLTR
S. aureus strains
  MICs of lactoferrin alone: greater than 25 mg/ml
S. aureus ATCC 25923
  cell morphology: no obvious effect
S. aureus SHY97-4320 [1]; LF 1 mg/ml alone or in combination with penicillin
  cell division: Groups of multiple undivided cell
S. aureus SHY97-4320 [1]; after treatment with LF, P<0.005
  coverage of cells with WGA-gold: less covered
S. aureus SHY97-4320 [2]; 1 mg/ml LF in combination to 8 μg/ml penicillin G
  proteins of approximately 59, 42 and 27 kDa in protein profile: absent
S. aureus SHY97-4320 [2]; compound alone: 8 μg/ml penicillin G or 1 mg/ml LF, 4-h of growth
  proteins of approximately 59, 42 and 27 kDa in protein profile: absent
